Assay results from patent US20230242615A1.

Target: IL4Rα on TF1 cells (UniProt P24394)
Assay: cell-based or functional assay

B1: Dupilumab (antibody, INN chains, looked up, V domains shown)
VH: EVQLVESGGGLEQPGGSLRLSCAGSGFTFRDYAMTWVRQAPGKGLEWVSSISGSGGNTYYADSVKGRFTISRDNSKNTLYLQMNSLRAEDTAVYYCAKDRLSITIRPRYYGLDVWGQGTTVTVSS
VL: DIVMTQSPLSLPVTPGEPASISCRSSQSLLYSIGYNYLDWYLQKSGQSPQLLIYLGSNRASGVPDRFSGSGSGTDFTLKISRVEAEDVGFYYCMQALQTPYTFGQGTKLEIKR
IC50 (nM) Blocking IL4, TF-1 cell proliferation: 3.1 nM
IC50 (nM) Blocking IL13, TF-1 cell proliferation: 20.5 nM
Relative activity (blocking IL4, against Dupilumab): 1 fold
Relative activity (blocking IL13, against Dupilumab): 1 fold
